Assay results reported in patent publication US10239937.

Experiments:
[1] = molecular target: C3 fragments (iC3b, C3dg and C3d) of human complement component C3, deposited on cells or tissue (human) (UniProt P01024); test: flow cytometry, rabbit RBCs + human serum, no TT30, panel A12-2-0
[2] = molecular target: C3 fragments (iC3b, C3dg and C3d) of human complement component C3, deposited on cells or tissue (human) (UniProt P01024); test: flow cytometry, rabbit RBCs + human serum, no TT30, panel A12-3-0
[3] = molecular target: C3 fragments (iC3b, C3dg and C3d) of human complement component C3, deposited on cells or tissue (human) (UniProt P01024); test: flow cytometry, rabbit RBCs + human serum + TT30 1.4 µM, time 0, panel A5-2-0 [Time: 0]
[4] = molecular target: C3 fragments (iC3b, C3dg and C3d) of human complement component C3, deposited on cells or tissue (human) (UniProt P01024); test: flow cytometry, rabbit RBCs + human serum + TT30 1.4 µM, time 0, panel A5-3-0 [Time: 0]
[5] = molecular target: C3 fragments (iC3b, C3dg and C3d) of human complement component C3, deposited on cells or tissue (human) (UniProt P01024); test: flow cytometry, rabbit RBCs + human serum + TT30 0.46 µM, time 0, panel A8-2-0 [Time: 0]
[6] = molecular target: C3 fragments (iC3b, C3dg and C3d) of human complement component C3, deposited on cells or tissue (human) (UniProt P01024); test: flow cytometry, rabbit RBCs + human serum + TT30 0.46 µM, time 0, panel A8-3-0 [Time: 0]
[7] = molecular target: C3 fragments (iC3b, C3dg and C3d) of human complement component C3, deposited on cells or tissue (human) (UniProt P01024); test: flow cytometry, rabbit RBCs + human serum + TT30 0.06 µM, time 0, panel A11-2-0 [Time: 0]
[8] = molecular target: C3 fragments (iC3b, C3dg and C3d) of human complement component C3, deposited on cells or tissue (human) (UniProt P01024); test: flow cytometry, rabbit RBCs + human serum + TT30 0.06 µM, time 0, panel A11-3-0 [Time: 0]
[9] = molecular target: C3 fragments (iC3b, C3dg and C3d) of human complement component C3, deposited on cells or tissue (human) (UniProt P01024); test: flow cytometry, rabbit RBCs + human serum + TT30 0.46 µM, 2 hr, panel A8-2-2 [Time: 2 hr]
[10] = molecular target: C3 fragments (iC3b, C3dg and C3d) of human complement component C3, deposited on cells or tissue (human) (UniProt P01024); test: flow cytometry, rabbit RBCs + human serum + TT30 0.46 µM, 2 hr, panel A8-2-3 [Time: 2 hr]
[11] = molecular target: C3 fragments (iC3b, C3dg and C3d) of human complement component C3, deposited on cells or tissue (human) (UniProt P01024); test: flow cytometry, rabbit RBCs + human serum + TT30 0.46 µM, 4 hr, panel A8-4-2 [Time: 4 hr]
[12] = molecular target: C3 fragments (iC3b, C3dg and C3d) of human complement component C3, deposited on cells or tissue (human) (UniProt P01024); test: flow cytometry, rabbit RBCs + human serum + TT30 0.46 µM, 4 hr, panel A8-4-3 [Time: 4 hr]
[13] = molecular target: C3 fragments (iC3b, C3dg and C3d) of human complement component C3, deposited on cells or tissue (human) (UniProt P01024); test: flow cytometry, rabbit RBCs + human serum + TT30 0.46 µM, 24 hr, panel A8-24-2 [Time: 24 hr]
[14] = molecular target: C3 fragments (iC3b, C3dg and C3d) of human complement component C3, deposited on cells or tissue (human) (UniProt P01024); test: flow cytometry, rabbit RBCs + human serum + TT30 0.46 µM, 24 hr, panel A8-24-3 [Time: 24 hr]
[15] = molecular target: C3 fragments (iC3b, C3dg and C3d) of human complement component C3, deposited on cells or tissue (human) (UniProt P01024); test: flow cytometry, rabbit RBCs + human serum + TT30 3.7 µM, time 0, panel A2-2-0; filing: no C3 fragments or TT30 on the cells at this concentration [Time: 0]
[16] = molecular target: C3 fragments (iC3b, C3dg and C3d) of human complement component C3, deposited on cells or tissue (human) (UniProt P01024); test: flow cytometry, rabbit RBCs + human serum + TT30 3.7 µM, time 0, panel A2-3-0; filing: no C3 fragments or TT30 on the cells at this concentration [Time: 0]
[17] = molecular target: C3 fragments (iC3b, C3dg and C3d) of human complement component C3, deposited on cells or tissue (human) (UniProt P01024); test: flow cytometry, rabbit RBCs + human serum + TT30 1.4 µM, time 0, panel A5-1-0; isotype control for anti-C3d [Time: 0]
TT30 (human) [18] = test: flow cytometry, rabbit RBCs + human serum + TT30 1.4 µM, time 0, panel A5-2-0; isotype control for HB5 [Time: 0]
Chain of TT30 (human) (chain, as listed by the source limits assumed): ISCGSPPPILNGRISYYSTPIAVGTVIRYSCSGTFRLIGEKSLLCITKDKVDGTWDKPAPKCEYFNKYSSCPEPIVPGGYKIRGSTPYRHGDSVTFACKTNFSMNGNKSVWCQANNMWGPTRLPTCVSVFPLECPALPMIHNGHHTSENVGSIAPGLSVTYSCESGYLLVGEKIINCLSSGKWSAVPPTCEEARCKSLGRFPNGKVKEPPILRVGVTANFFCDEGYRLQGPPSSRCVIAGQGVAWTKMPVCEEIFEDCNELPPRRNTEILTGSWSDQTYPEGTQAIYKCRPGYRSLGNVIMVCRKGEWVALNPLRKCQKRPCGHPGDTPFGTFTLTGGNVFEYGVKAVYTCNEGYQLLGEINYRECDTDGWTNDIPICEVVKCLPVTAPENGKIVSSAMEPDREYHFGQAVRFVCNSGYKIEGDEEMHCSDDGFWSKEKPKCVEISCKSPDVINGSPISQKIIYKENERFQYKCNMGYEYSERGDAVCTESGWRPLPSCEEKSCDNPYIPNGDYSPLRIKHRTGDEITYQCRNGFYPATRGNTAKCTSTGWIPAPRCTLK

TT30 (human) [19] = test: flow cytometry, rabbit RBCs + human serum + TT30 0.46 µM, 2 hr, panel A8-2-2; isotype control for HB5 [Time: 2 hr]
TT30 (human) [20] = test: flow cytometry, rabbit RBCs + human serum + TT30 0.46 µM, 4 hr, panel A8-4-2; isotype control for HB5 [Time: 4 hr]
TT30 (human) [21] = test: flow cytometry, rabbit RBCs + human serum + TT30 0.46 µM, 24 hr, panel A8-24-2; isotype control for HB5 [Time: 24 hr]

Chain of UniProt P01024 (P01024 1002-1303 limits assumed): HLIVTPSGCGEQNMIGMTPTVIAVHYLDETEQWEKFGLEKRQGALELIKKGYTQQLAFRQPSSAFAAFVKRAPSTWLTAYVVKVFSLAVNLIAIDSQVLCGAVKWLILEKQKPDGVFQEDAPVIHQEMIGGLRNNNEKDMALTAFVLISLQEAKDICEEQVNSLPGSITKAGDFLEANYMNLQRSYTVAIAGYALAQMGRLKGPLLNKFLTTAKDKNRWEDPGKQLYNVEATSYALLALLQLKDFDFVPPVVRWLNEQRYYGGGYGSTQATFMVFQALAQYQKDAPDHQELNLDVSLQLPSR

Q: Which % of gated cells in Q4-UL (C3d-APC+, IgG2a-FITC-) [1] does the source give for C3d (A702)-APC (antibody) here?
A: Its % of gated cells in Q4-UL (C3d-APC+, IgG2a-FITC-) is 100%.

Q: What about the % of gated cells in Q4-UR (C3d-APC+, IgG2a-FITC+) [1] of the same substance?
A: The % of gated cells in Q4-UR (C3d-APC+, IgG2a-FITC+) was 0%.

Q: And the % of gated cells in Q4-UL (C3d-APC+, HB5-FITC-) [2]?
A: The % of gated cells in Q4-UL (C3d-APC+, HB5-FITC-) was 94.9%.

Q: What about the % of gated cells in Q4-UR (C3d-APC+, HB5-FITC+) [2] of the same substance?
A: Its % of gated cells in Q4-UR (C3d-APC+, HB5-FITC+) is 2.6%.

Q: What about the % of gated cells in Q4-UL (C3d-APC+, IgG2a-FITC-) [3] of the same substance?
A: Its % of gated cells in Q4-UL (C3d-APC+, IgG2a-FITC-) is 84.9%.

Q: And the % of gated cells in Q4-UR (C3d-APC+, IgG2a-FITC+) [3]?
A: Its % of gated cells in Q4-UR (C3d-APC+, IgG2a-FITC+) is 0%.

Q: And the % of gated cells in Q4-UL (C3d-APC+, HB5-FITC-) [4]?
A: Its % of gated cells in Q4-UL (C3d-APC+, HB5-FITC-) is 81%.

Q: What about the % of gated cells in Q4-UR (C3d-APC+, HB5-FITC+) [4] of the same substance?
A: The % of gated cells in Q4-UR (C3d-APC+, HB5-FITC+) was 4%.

Q: And the % of gated cells in Q4-UL (C3d-APC+, IgG2a-FITC-) [5]?
A: The % of gated cells in Q4-UL (C3d-APC+, IgG2a-FITC-) was 84.8%.

Q: What about the % of gated cells in Q4-UR (C3d-APC+, IgG2a-FITC+) [5] of the same substance?
A: Its % of gated cells in Q4-UR (C3d-APC+, IgG2a-FITC+) is 0%.

Q: What about the % of gated cells in Q4-UL (C3d-APC+, HB5-FITC-) [6] of the same substance?
A: The % of gated cells in Q4-UL (C3d-APC+, HB5-FITC-) was 11.5%.

Q: And the % of gated cells in Q4-UR (C3d-APC+, HB5-FITC+) [6]?
A: The % of gated cells in Q4-UR (C3d-APC+, HB5-FITC+) was 69.8%.

Q: What about the % of gated cells in Q4-UL (C3d-APC+, IgG2a-FITC-) [7] of the same substance?
A: Its % of gated cells in Q4-UL (C3d-APC+, IgG2a-FITC-) is 90.3%.

Q: What about the % of gated cells in Q4-UR (C3d-APC+, IgG2a-FITC+) [7] of the same substance?
A: The % of gated cells in Q4-UR (C3d-APC+, IgG2a-FITC+) was 0%.

Q: What about the % of gated cells in Q4-UL (C3d-APC+, HB5-FITC-) [8] of the same substance?
A: Its % of gated cells in Q4-UL (C3d-APC+, HB5-FITC-) is 78.9%.

Q: What about the % of gated cells in Q4-UR (C3d-APC+, HB5-FITC+) [8] of the same substance?
A: The % of gated cells in Q4-UR (C3d-APC+, HB5-FITC+) was 5.3%.

Q: And the % of gated cells in Q4-UL (C3d-APC+, IgG2a-FITC-) [9]?
A: The % of gated cells in Q4-UL (C3d-APC+, IgG2a-FITC-) was 89.8%.

Q: And the % of gated cells in Q4-UR (C3d-APC+, IgG2a-FITC+) [9]?
A: The % of gated cells in Q4-UR (C3d-APC+, IgG2a-FITC+) was 0.3%.

Q: And the % of gated cells in Q4-UL (C3d-APC+, HB5-FITC-) [10]?
A: Its % of gated cells in Q4-UL (C3d-APC+, HB5-FITC-) is 25.3%.

Q: What about the % of gated cells in Q4-UR (C3d-APC+, HB5-FITC+) [10] of the same substance?
A: Its % of gated cells in Q4-UR (C3d-APC+, HB5-FITC+) is 67.5%.

Q: And the % of gated cells in Q4-UL (C3d-APC+, IgG2a-FITC-) [11]?
A: The % of gated cells in Q4-UL (C3d-APC+, IgG2a-FITC-) was 93.4%.

Q: And the % of gated cells in Q4-UR (C3d-APC+, IgG2a-FITC+) [11]?
A: Its % of gated cells in Q4-UR (C3d-APC+, IgG2a-FITC+) is 0%.

Q: What about the % of gated cells in Q4-UL (C3d-APC+, HB5-FITC-) [12] of the same substance?
A: The % of gated cells in Q4-UL (C3d-APC+, HB5-FITC-) was 38.2%.

Q: And the % of gated cells in Q4-UR (C3d-APC+, HB5-FITC+) [12]?
A: Its % of gated cells in Q4-UR (C3d-APC+, HB5-FITC+) is 54.7%.

Q: What about the % of gated cells in Q4-UL (C3d-APC+, IgG2a-FITC-) [13] of the same substance?
A: The % of gated cells in Q4-UL (C3d-APC+, IgG2a-FITC-) was 97.9%.

Q: What about the % of gated cells in Q4-UR (C3d-APC+, IgG2a-FITC+) [13] of the same substance?
A: Its % of gated cells in Q4-UR (C3d-APC+, IgG2a-FITC+) is 0.3%.

Q: And the % of gated cells in Q4-UL (C3d-APC+, HB5-FITC-) [14]?
A: Its % of gated cells in Q4-UL (C3d-APC+, HB5-FITC-) is 51.7%.

Q: And the % of gated cells in Q4-UR (C3d-APC+, HB5-FITC+) [14]?
A: The % of gated cells in Q4-UR (C3d-APC+, HB5-FITC+) was 44.4%.

Q: And the % of gated cells in Q4-UL (C3d-APC+, IgG2a-FITC-) [15]?
A: The % of gated cells in Q4-UL (C3d-APC+, IgG2a-FITC-) was 2.4%.

Q: And the % of gated cells in Q4-UR (C3d-APC+, IgG2a-FITC+) [15]?
A: The % of gated cells in Q4-UR (C3d-APC+, IgG2a-FITC+) was 0%.

Q: And the % of gated cells in Q4-UL (C3d-APC+, HB5-FITC-) [16]?
A: Its % of gated cells in Q4-UL (C3d-APC+, HB5-FITC-) is 0%.

Q: What about the % of gated cells in Q4-UR (C3d-APC+, HB5-FITC+) [16] of the same substance?
A: The % of gated cells in Q4-UR (C3d-APC+, HB5-FITC+) was 0%.

Q: With IgG1-APC (antibody) as the substance, how does the % of gated cells in Q4-UR (IgG1-APC+, HB5-FITC+) [17] read?
A: The % of gated cells in Q4-UR (IgG1-APC+, HB5-FITC+) was 0.4%.

Q: Which % of gated cells in Q4-LR (C3d-APC-, IgG2a-FITC+) (TT30 (human) [18]) does the source give for IgG2a-FITC (antibody) here?
A: The % of gated cells in Q4-LR (C3d-APC-, IgG2a-FITC+) was 0.5%.

Q: And the % of gated cells in Q4-LR (C3d-APC-, IgG2a-FITC+) (TT30 (human) [19])?
A: The % of gated cells in Q4-LR (C3d-APC-, IgG2a-FITC+) was 0.3%.

Q: What about the % of gated cells in Q4-UR (C3d-APC+, IgG2a-FITC+) (TT30 (human) [19]) of the same substance?
A: Its % of gated cells in Q4-UR (C3d-APC+, IgG2a-FITC+) is 0.3%.

Q: And the % of gated cells in Q4-LR (C3d-APC-, IgG2a-FITC+) (TT30 (human) [20])?
A: The % of gated cells in Q4-LR (C3d-APC-, IgG2a-FITC+) was 0.3%.

Q: And the % of gated cells in Q4-LR (C3d-APC-, IgG2a-FITC+) (TT30 (human) [21])?
A: Its % of gated cells in Q4-LR (C3d-APC-, IgG2a-FITC+) is 0.3%.

Q: And the % of gated cells in Q4-UR (C3d-APC+, IgG2a-FITC+) (TT30 (human) [21])?
A: The % of gated cells in Q4-UR (C3d-APC+, IgG2a-FITC+) was 0.3%.
